Assay results taken from US6801029B2, “Microwave dielectric spectroscopy method and apparatus” (Wisconsin Alumni Research Foundation, priority 2001, dated 2004).

How the values were obtained:
[1] = Thermal unfolding of RNase A by microwave dielectric spectroscopy (slot antenna s11 log mag, Lorentzian peak positions fitted to 2-state model); format: physicochemical
From the text: A coaxial-fed slot antenna 25 was manufactured from RO-4002 (Rogers Corporation, Rogers, Conn.) on a LPKF ProtoMat using BoardMaster 3.0 (LPKF Laser & Electronics AG, Germany). The coaxial feed was composed of semi-rigid PE-047SR (Pasternack Enterprises, Irvine, Calif.). The dimensions of the antenna were chosen to yield a resonant frequency of approximately 3 GHz. This frequency was selected to optimize the interaction of microwave radiation with “bound water,” assumed to undergo dispersion at lower frequencies than bulk solution. The active range of the antenna extends from approximately 500 MHz to 6.5 GHz. The antenna was attached to a 0.5 cm Suprasil fused quartz UV/VIS cuvette 21 (Hellma GmbH & Co., Germany).
Microwave measurements were made utilizing as the analyzer 37 a Hewlett-Packard 8720D vector network analyzer (VNA) (Agilent Technologies, Palo Alto, Calif.) set to measure s11. The lowest power range −15 to +5 dBm was used for all experiments. The slot antenna 25 was attached to the VNA 37 using a standard 50 Ω coaxial cable 35. UV/VIS absorption measurements were performed using a Hewlett-Packard 8452A diode-array spectrophotometer with a water-thermostatted cell holder (Agilent Technologies, Palo Alto, Calif.), functioning as the optical spectrometer 28 with detector 32. Both instruments were controlled using LabView (National Instruments Corporation, Austin, Tex.) via a GPIB connection.
Data analysis was performed in one of two ways: 1) Center frequency was determined by fitting spectra at each change of temperature or other environmental conditions to a number of Lorentzian peaks; or 2) Peak amplitude was determined for spectra at each change of temperature or other environmental condition. Commercial software such as Microcal Origin was used for both types of fitting. Data, either center frequency or amplitude, could be then plotted as a function of environmental condition and subjected to further analysis. For thermal unfolding experiments, peak center frequency determination yielded better results, perhaps because many peaks overlap. Peak amplitude determination was more successful for hormone binding experiments, probably because peaks were well-spaced and non-overlapping.
(§1) Bovine pancreatic ribonuclease A (RNase A) was purchased from Sigma (St. Louis, Mo.) and used without further purification. All other reagents were purchased from Fisher Scientific (Pittsburgh, Pa.). Lyophilized protein was dissolved in a solution of 30 mM sodium acetate/acetic acid, 100 mM sodium chloride, pH 4.5, then dialyzed exhaustively before use. Protein concentrations were determined by UV-VIS spectroscopy. The extinction coefficient was taken as 0.72 mg^−1mL cm^−1 at 278 nm. Concentrations of RNase A varied from 0.2 to 1 mg/mL (14.6 to 73.0 μM). The environmental condition of the sample that was changed was temperature. RNase A was unfolded reversibly by increasing the temperature of the sample at a maximum rate of 0.4° C./min. The unfolding reaction was monitored using UV/VIS absorbance at 288 nm.
As with buffer alone, peak positions shift with temperature, and most peaks broaden with increasing temperature.
Spectra were fitted to eight Lorentzian peaks. […] Four peaks, identified in Table 1 below, responded in a sigmoidal fashion characteristic of cooperative unfolding; the remaining peaks increased or decreased monotonically with temperature.

[2] = Thermal unfolding of RNase A monitored by UV/VIS absorbance at 288 nm, two-state model; format: physicochemical
Method: as §1
The unfolding of RNase A may be observed using UV/VIS absorbance. At low protein concentrations, the absorbance of RNase A follows Beer's Law:
where A(λ) is the absorbance, ε(λ,T) is the extinction coefficient, c is the protein concentration, and l is the path length. For selected proteins, the extinction coefficient ε depends not only on the wavelength λ and the temperature T, but also on the protein conformation. Such a dependence of ε on conformation is called a hyperchromic shift. For RNase A, the maximal hyperchromic shift occurs at approximately 288 nm.
Here, N refers to native protein, U refers to unfolded protein, Tm is the midpoint temperature (at which FN=FU=0.5 and ΔG=0 kcal/mol), ΔHm is the enthalpy at the midpoint temperature, α is the observed signal (in this case, UV/VIS absorbance), and αN and αU are the observed signals for native and unfolded protein, respectively. Since the unfolding of RNase A is a unimolecular reaction, thermodynamic parameters such as enthalpy, free energy, and mid-point temperature are independent of concentration. […] Analysis of unfolding of RNase A yields an average Tm of 58.2° C. and an average ΔHm of 74.9 kcal/mol.
Other researchers have implied that the presence of microwave radiation destabilizes protein, and may enhance rates of folding and unfolding. […] The differences in Tm and ΔHm are within experimental error and are not thought to be significant.

[3] = Lorentzian peak 1 (1.5 GHz at 30° C.)
[4] = Lorentzian peak 4 (3.1 GHz at 30° C.)
[5] = Lorentzian peak 5 (3.5 GHz at 30° C.)
[6] = Lorentzian peak 7 (4.4 GHz at 30° C.)
[7] = simultaneous UV/VIS and microwave measurements

B1: Bovine pancreatic ribonuclease A (protein, UniProt P61823 27-150, looked up)
Ribonuclease pancreatic: KETAAAKFERQHMDSSTSAASSSNYCNQMMKSRNLTKDRCKPVNTFVHESLADVQAVCSQKNVACKNGQTNCYQSYSTMSITDCRETGSSKYPNCAYKTTQANKHIIVACEGNPYVPVHFDASV
notes: Bovine pancreatic ribonuclease A purchased from Sigma, used without further purification
Tm [1, 3]: 50.4 °C
ΔHm [1, 3]: 66.0 kcal/mol
Tm [1, 4]: 58.3 °C
ΔHm [1, 4]: 161.4 kcal/mol
Tm [1, 5]: 53.3 °C
ΔHm [1, 5]: 72.1 kcal/mol
Tm [1, 6]: 60.9 °C
ΔHm [1, 6]: 76.8 kcal/mol
Tm ([1]; fit to all peaks (1, 4, 5, 7)): 55.21 °C
ΔHm ([1]; fit to all peaks (1, 4, 5, 7)): 54.2 kcal/mol
Tm ([2]; UV/VIS alone): 58.09 °C
ΔHm ([2]; UV/VIS alone): 76.8 kcal/mol
average Tm (midpoint temperature of unfolding) ([2]; average, UV/VIS absorbance 288 nm, 30 mM sodium acetate/acetic acid, 100 mM NaCl, pH 4.5): 58.2 °C
average ΔHm (enthalpy at midpoint temperature) ([2]; average, UV/VIS absorbance 288 nm, pH 4.5 buffer): 74.9 kcal/mol
Tm [2, 7]: 58.91 °C
ΔHm [2, 7]: 65.1 kcal/mol
